Measured values from US20260176621A1, “Metabolically Stabilized Carbohydrate Targeting Ligands For Oligonucleotide Conjugates” (Arrowhead Pharmaceuticals, Inc., priority 2023, published 2026).
“And” between values parts separate entries of the source, which are not always exact repeats. Identical values can stand only once.

B1: AD14216: multimeric (dimer) FXII-ANGPTL3 RNAi agent conjugate with NAG37s ligand, not metabolically stabilized, SEQ ID NO 5-7 (nucleic acid)
chain 1: UUCAAAGCACUUUAUUGAG
chain 2: UUGAGUUGAGUUCAAGUGA
chain 3: UCACUUGAACUCAACUCAACUCAAUAAAGUGCUUUGAA
modifications: NAG37s ligand conjugate; modified_base 1 OTHER; 5'-cyclopropyl phosphonate-2'-O-methyluridine; modified_base 1^2 OTHER; phosphorothioate linkage; modified_base 2 OTHER; 2'-fluorouridine; modified_base 2^3 OTHER; modified_base 3 cm; modified_base 3^4 OTHER; modified_base 4 OTHER; 2'-fluoroadenosine; modified_base 5 OTHER; 2'-O-methyladenosine; modified_base 6 OTHER; 2'-fl; phosphoro
B2: AD14217: multimeric (dimer) FXII-ANGPTL3 RNAi agent conjugate with metabolically stabilized NAG42s ligand, SEQ ID NO 8-10 (nucleic acid)
chain 1: UUCAAAGCACUUUAUUGAG
chain 2: UUGAGUUGAGUUCAAGUGA
chain 3: B1 chain 3
modifications: NAG42s ligand conjugate; modified_base 1 OTHER; 5'-cyclopropyl phosphonate-2'-O-methyluridine; modified_base 1^2 OTHER; phosphorothioate linkage; modified_base 2 OTHER; 2'-fluorouridine; modified_base 2^3 OTHER; modified_base 3 cm; modified_base 3^4 OTHER; modified_base 4 OTHER; 2'-fluoroadenosine; modified_base 5 OTHER; 2'-O-methyladenosine; modified_base 6 OTHER; 2'-fl; phosphoro
B3: AD14218: multimeric (dimer) FXII-ANGPTL3 RNAi agent conjugate with metabolically stabilized NAG52s ligand, SEQ ID NO 11-13 (nucleic acid)
chain 1: UUCAAAGCACUUUAUUGAG
chain 2: UUGAGUUGAGUUCAAGUGA
chain 3: B1 chain 3
modifications: NAG52s ligand conjugate; modified_base 1 OTHER; 5'-cyclopropyl phosphonate-2'-O-methyluridine; modified_base 1^2 OTHER; phosphorothioate linkage; modified_base 2 OTHER; 2'-fluorouridine; modified_base 2^3 OTHER; modified_base 3 cm; modified_base 3^4 OTHER; modified_base 4 OTHER; 2'-fluoroadenosine; modified_base 5 OTHER; 2'-O-methyladenosine; modified_base 6 OTHER; 2'-fl; phosphoro

How the values were obtained:
ANGPTL3 = assay: Serum ANGPTL3 protein by ELISA after single SC dose in cynomolgus monkeys (Example 4); type: in vivo, cynomolgus macaque (Macaca fascicularis); set-up: key to Avg cANGPTL3 normalized to pre-treatment and control: ratio to animal's pre-dose geometric mean, then to saline group mean
Description: (§1) Multimeric (dimer) RNAi agent conjugates that included metabolically stabilized NAG targeting ligands were evaluated for gene silencing activity in cynomolgus macaque (Macaca fascicularis) primates (referred to herein as “cynos”). Each of the multimeric RNAi agent conjugates evaluated included one RNAi agent of the conjugate having sufficient complementarity with the mouse Angiopoietin-like 3 (ANGPTL3) gene transcript, and a second RNAi agent having sufficient complementarity with the mouse Factor 12 (FXII) gene transcript. As discussed in more detail below, both FXII and ANGPTL3 gene expression levels were assessed.
(§2) At day 1, male cynos were given a single subcutaneous administration of 0.3 mL/kg animal weight (20 mg/mL concentration) containing 6.0 mg/kg (mpk) of a multimeric RNAi agent conjugate formulated in isotonic saline, or 3.0 mg/kg of two separate RNAi conjugates, according to the following Table 3.
(§3) Three (3) cynos were dosed in each Group (n=3). Serum samples were taken on days −14, −7, and day 1 (pre-dose). Serum was then collected on days 8, 15, 22, 29, 36 43, 50, 57, 64, 71, 78, 98, 106, 120, 133, 148, and 162.
(§4) ANGPTL3 protein levels in serum were measured by ELISA assay (R&D Systems), according to the manufacturer's recommendations. FXII protein levels in serum were measured by ELISA assay (R&D Systems), according to the manufacturer's recommendations. The ANGPTL3 protein levels and FXII protein levels for each animal were normalized. For normalization, the level of ANGPTL3 protein or FXII protein, respectively, for each animal at a time point, was divided by the geometric mean of pre-treatment level of expression in that animal (in this case at days −14, −7 and 1 (pre-dose)) to determine the ratio of expression “normalized to pre-treatment.” Expression at a specific time point was then normalized to the saline control group by dividing the “normalized to pre-treatment” ratio for an individual animal by the mean “normalized to pretreatment” ratio of all […] in the saline control group.

FXII = assay: Serum FXII protein by ELISA after single SC dose in cynomolgus monkeys (Example 4); type: in vivo, cynomolgus macaque (Macaca fascicularis); set-up: key to Avg cFXII normalized to pre-treatment and control: ratio to animal's pre-dose geometric mean, then to saline group mean
Description: as §1, §2, §3, §4

[1] = Day 8, single SC dose day 1, 6.0 mg/kg (Group 1: 3.0+3.0 mg/kg)
[2] = Day 15, single SC dose day 1, 6.0 mg/kg (Group 1: 3.0+3.0 mg/kg)
[3] = Day 22, single SC dose day 1, 6.0 mg/kg (Group 1: 3.0+3.0 mg/kg)
[4] = Day 29, single SC dose day 1, 6.0 mg/kg (Group 1: 3.0+3.0 mg/kg)
[5] = Day 36, single SC dose day 1, 6.0 mg/kg (Group 1: 3.0+3.0 mg/kg)
[6] = Day 43, single SC dose day 1, 6.0 mg/kg (Group 1: 3.0+3.0 mg/kg)
[7] = Day 50, single SC dose day 1, 6.0 mg/kg (Group 1: 3.0+3.0 mg/kg)
[8] = Day 57, single SC dose day 1, 6.0 mg/kg (Group 1: 3.0+3.0 mg/kg)
[9] = Day 64, single SC dose day 1, 6.0 mg/kg (Group 1: 3.0+3.0 mg/kg)
[10] = Day 71, single SC dose day 1, 6.0 mg/kg (Group 1: 3.0+3.0 mg/kg)
[11] = Day 78, single SC dose day 1, 6.0 mg/kg (Group 1: 3.0+3.0 mg/kg)
[12] = Day 98, single SC dose day 1, 6.0 mg/kg (Group 1: 3.0+3.0 mg/kg)
[13] = Day 106, single SC dose day 1, 6.0 mg/kg (Group 1: 3.0+3.0 mg/kg)
[14] = Day 120, single SC dose day 1, 6.0 mg/kg (Group 1: 3.0+3.0 mg/kg)
[15] = Day 133, single SC dose day 1, 6.0 mg/kg (Group 1: 3.0+3.0 mg/kg)
[16] = Day 148, single SC dose day 1, 6.0 mg/kg (Group 1: 3.0+3.0 mg/kg)
[17] = Day 162, single SC dose day 1, 6.0 mg/kg (Group 1: 3.0+3.0 mg/kg)

Molecule | Avg cANGPTL3 normalized to pre-treatment and control (ANGPTL3; [1]) | Avg cANGPTL3 normalized to pre-treatment and control (ANGPTL3; [2]) | Avg cANGPTL3 normalized to pre-treatment and control (ANGPTL3; [3]) | cANGPTL3 knockdown (ANGPTL3; [3]) | Avg cANGPTL3 normalized to pre-treatment and control (ANGPTL3; [4]) | Avg cANGPTL3 normalized to pre-treatment and control (ANGPTL3; [5]) | Avg cANGPTL3 normalized to pre-treatment and control (ANGPTL3; [6]) | Avg cANGPTL3 normalized to pre-treatment and control (ANGPTL3; [7]) | Avg cANGPTL3 normalized to pre-treatment and control (ANGPTL3; [8]) | Avg cANGPTL3 normalized to pre-treatment and control (ANGPTL3; [9]) | Avg cANGPTL3 normalized to pre-treatment and control (ANGPTL3; [10]) | Avg cANGPTL3 normalized to pre-treatment and control (ANGPTL3; [11]) | Avg cANGPTL3 normalized to pre-treatment and control (ANGPTL3; [12]) | Avg cANGPTL3 normalized to pre-treatment and control (ANGPTL3; [13]) | cANGPTL3 knockdown (ANGPTL3; [13]) | Avg cANGPTL3 normalized to pre-treatment and control (ANGPTL3; [14]) | Avg cANGPTL3 normalized to pre-treatment and control (ANGPTL3; [15]) | Avg cFXII normalized to pre-treatment and control (FXII; [1]) | Avg cFXII normalized to pre-treatment and control (FXII; [2]) | Avg cFXII normalized to pre-treatment and control (FXII; [3]) | also measured
B1 | 0.442 | 0.362 | 0.339 | approximately 66% | 0.403 | 0.369 | 0.394 | 0.560 | 0.622 | 0.590 | 0.641 | 0.603 | 0.666 | 0.944 | no meaningful knockdown | 1.128 | 1.129 | 0.481 | 0.320 | 0.222 | cFXII knockdown (FXII; [3]): approximately 78%; Avg cFXII normalized to pre-treatment and control (FXII; [4]): 0.179; Avg cFXII normalized to pre-treatment and control (FXII; [5]): 0.224; Avg cFXII normalized to pre-treatment and control (FXII; [6]): 0.237; Avg cFXII normalized to pre-treatment and control (FXII; [7]): 0.130; Avg cFXII normalized to pre-treatment and control (FXII; [8]): 0.194; Avg cFXII normalized to pre-treatment and control (FXII; [9]): 0.184; Avg cFXII normalized to pre-treatment and control (FXII; [10]): 0.429; Avg cFXII normalized to pre-treatment and control (FXII; [11]): 0.491; Avg cFXII normalized to pre-treatment and control (FXII; [12]): 0.592; cFXII knockdown (FXII; [12]): approximately 41%; Avg cFXII normalized to pre-treatment and control (FXII; [13]): 0.520; Avg cFXII normalized to pre-treatment and control (FXII; [14]): 0.567; Avg cFXII normalized to pre-treatment and control (FXII; [15]): 0.784; Avg cFXII normalized to pre-treatment and control (FXII; [16]): 0.589; Avg cFXII normalized to pre-treatment and control (FXII; [17]): 0.728
B2 | 0.361 | 0.288 | 0.194 | approximately 81% | 0.261 | 0.246 | 0.272 | 0.327 | 0.456 | 0.548 | 0.521 | 0.505 | 0.490 | 0.777 and 0.770 | approximately 33% | 0.943 | 0.892 | 0.430 | 0.230 | 0.219 | cFXII knockdown (FXII; [3]): approximately 78%; Avg cFXII normalized to pre-treatment and control (FXII; [4]): 0.095; Avg cFXII normalized to pre-treatment and control (FXII; [5]): 0.126; Avg cFXII normalized to pre-treatment and control (FXII; [6]): 0.103; Avg cFXII normalized to pre-treatment and control (FXII; [7]): 0.104; Avg cFXII normalized to pre-treatment and control (FXII; [8]): 0.065; Avg cFXII normalized to pre-treatment and control (FXII; [9]): 0.093; Avg cFXII normalized to pre-treatment and control (FXII; [10]): 0.211; Avg cFXII normalized to pre-treatment and control (FXII; [11]): 0.230; Avg cFXII normalized to pre-treatment and control (FXII; [12]): 0.316; cFXII knockdown (FXII; [12]): approximately 69%; Avg cFXII normalized to pre-treatment and control (FXII; [13]): 0.316; Avg cFXII normalized to pre-treatment and control (FXII; [14]): 0.443; Avg cFXII normalized to pre-treatment and control (FXII; [15]): 0.536; Avg cFXII normalized to pre-treatment and control (FXII; [16]): 0.567; Avg cFXII normalized to pre-treatment and control (FXII; [17]): 0.468
B3 | 0.252 | 0.238 | 0.137 | ~86% | 0.161 | 0.186 | 0.164 | 0.212 | 0.245 | 0.352 | 0.328 | 0.354 | 0.425 | 0.565 | approximately 45% | 0.637 | 0.672 | 0.299 | 0.201 | 0.156 | cFXII knockdown (FXII; [3]): approximately 85%; Avg cFXII normalized to pre-treatment and control (FXII; [4]): 0.077; Avg cFXII normalized to pre-treatment and control (FXII; [5]): 0.058; Avg cFXII normalized to pre-treatment and control (FXII; [6]): 0.058; Avg cFXII normalized to pre-treatment and control (FXII; [7]): 0.032; Avg cFXII normalized to pre-treatment and control (FXII; [8]): 0.056; Avg cFXII normalized to pre-treatment and control (FXII; [9]): 0.038; Avg cFXII normalized to pre-treatment and control (FXII; [10]): 0.094; Avg cFXII normalized to pre-treatment and control (FXII; [11]): 0.109; Avg cFXII normalized to pre-treatment and control (FXII; [12]): 0.139; cFXII knockdown (FXII; [12]): approximately 86%; Avg cFXII normalized to pre-treatment and control (FXII; [13]): 0.158; Avg cFXII normalized to pre-treatment and control (FXII; [14]): 0.194; Avg cFXII normalized to pre-treatment and control (FXII; [15]): 0.213; Avg cFXII normalized to pre-treatment and control (FXII; [16]): 0.263; cFXII inhibition (FXII; Day 162, single SC dose day 1, 6.0 mg/kg): more than 70%; Avg cFXII normalized to pre-treatment and control (FXII; [17]): 0.285
